Residue numbers refer to the chain shown, from its start. Numbers in names are those of the source.
B1: ADX_6727_B01 (K85S) (designed binder)
chain: MGVSDVPRDLEVVAATPTSLLISWDAPAVTVRYYRITYGREVQKYSDLGPLYIYQEFTVPGSKSTATISGLKPGVDYTITVYAVTGSGESPASSSPISINYRTEIDKPSQHHHHHH
notes: Full His6-tagged entry
B2: ADX_6727_H02 (I43S) (designed binder)
chain: B1 chain with I53S, S95K
notes: Full His6-tagged entry
B3: ADX_6727_G01 (L41A) (designed binder)
chain: B1 chain with L51A, S95K
notes: Full His6-tagged entry
B4: ADX_6727_C03 (Y35S) (designed binder)
chain: B1 chain with Y45S, S95K
notes: Full His6-tagged entry
B5: ADX_6727_B11 (Q33D/K85S) (designed binder)
chain: B1 chain with Q43D
notes: Full His6-tagged entry
B6: ADX_6727_D10 (Q33D/K85T) (designed binder)
chain: B1 chain with Q43D, S95T
notes: Full His6-tagged entry
B7: ADX_6727_D02 (R30N) (designed binder)
chain: B1 chain with R40N, S95K
notes: Full His6-tagged entry
B8: ADX_6727_F03 (I43Y as printed in Table 4; I43A in Table 7) (designed binder)
chain: B1 chain with I53A, S95K
notes: Full His6-tagged entry
B9: ADX_6727_D06 (Y44A/K85S) (designed binder)
chain: B1 chain with Y54A
notes: Full His6-tagged entry
B10: ADX_6727_C07 (R30A/K85S) (designed binder)
chain: B1 chain with R40A
notes: Full His6-tagged entry
B11: ADX_6727_G05 (I43S/K85A) (designed binder)
chain: B1 chain with I53S, S95A
notes: Full His6-tagged entry
B12: ADX_6727_C01 (K85A) (designed binder)
chain: B1 chain with S95A
notes: Full His6-tagged entry
B13: ADX_6727_D01 (K85T) (designed binder)
chain: B1 chain with S95T
notes: Full His6-tagged entry
B14: ADX_6727_F04 (Y44A/K85A) (designed binder)
chain: B1 chain with Y54A, S95A
notes: Full His6-tagged entry
B15: ADX_6727_B05 (I43S/K85T) (designed binder)
chain: B1 chain with I53S, S95T
notes: Full His6-tagged entry
B16: ADX_6727_F06 (L41A/K85T) (designed binder)
chain: B1 chain with L51A, S95T
notes: Full His6-tagged entry

molecular target: T1, human serum albumin (HSA), full length (human, UniProt P02768 25-609); experiment: SPR off-rate, immobilized HSA, 500 nM Adnectin, 25 C
T1 construct: mature; Immobilized on CM5 chip (SPR) or coated on plates (ELISA)
T1 sequence (P02768 25-609): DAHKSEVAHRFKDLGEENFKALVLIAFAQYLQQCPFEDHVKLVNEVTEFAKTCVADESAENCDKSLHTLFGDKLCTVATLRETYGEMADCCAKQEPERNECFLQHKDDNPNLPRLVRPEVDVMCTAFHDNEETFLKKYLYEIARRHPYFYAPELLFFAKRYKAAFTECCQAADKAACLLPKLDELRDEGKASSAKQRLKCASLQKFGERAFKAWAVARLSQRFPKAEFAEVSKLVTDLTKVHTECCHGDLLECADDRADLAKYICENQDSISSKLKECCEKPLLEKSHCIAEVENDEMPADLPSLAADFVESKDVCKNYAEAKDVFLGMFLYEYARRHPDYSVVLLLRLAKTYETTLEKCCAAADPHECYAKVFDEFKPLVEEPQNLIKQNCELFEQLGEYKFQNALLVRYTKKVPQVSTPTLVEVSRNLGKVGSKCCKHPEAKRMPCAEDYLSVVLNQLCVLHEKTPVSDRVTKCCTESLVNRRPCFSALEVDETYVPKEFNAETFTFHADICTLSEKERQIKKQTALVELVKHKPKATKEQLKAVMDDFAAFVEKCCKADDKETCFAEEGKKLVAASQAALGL
Method: (§1) Measurements were conducted by SPR and ELISA. SPR was conducted as follows. Full length HSA or mouse albumin was immobilized on a Biacore T series CM5 chip at 15 ug/mL in 10 mM acetate buffer (pH 5.0) buffer using standard NHS/EDC coupling, to a surface density of approximately 1000-1100 RU. For off-rate measurements at 25° C., PKE Adnectins were applied as analytes at 500 nM in HBS-P+(0.01 M HEPES pH 7.4, 0.15 M NaCl, 0.005% v/v Surfactant P20) running buffer at a flow rate of 20ul/min for 120 s over the immobilized albumins, followed by 800 s for dissociation. […] Regeneration of the chip surface between cycles was accomplished with two 30 second pulses of 10 mM Glycine, pH 2.0. Kinetic traces of reference-subtracted sensorgrams were fit to a 1:1 binding model for affinity using the Biaevaluation software. Only the dissociation phase was fit for determination of off-rates.

| Binder | koff [s⁻¹] |
| --- | --- |
| B1 | 0.000321 |
| B2 | 0.0139 |
| B3 | 0.0037 |
| B4 | 0.00107 |
| B5 | 0.0151 |
| B6 | 0.0134 |
| B7 | 0.00135 |
| B8 | 0.00468 |
| B9 | 0.00546 |
| B10 | 0.00218 |
| B11 | 0.0143 |
| B12 | 0.000297 |
| B13 | 0.000259 |
| B14 | 0.00624 |
| B15 | 0.00749 |
| B16 | 0.00298 |

molecular target: T2, mouse serum albumin (MSA), full length (mouse, UniProt P07724 25-608); experiment: SPR off-rate, immobilized MSA, 500 nM Adnectin, 25 C
T2 construct: mature; Immobilized on CM5 chip (SPR) or coated on plates (ELISA); also called mouse albumin; murine serum albumin
Method: as §1

| Binder | koff [s⁻¹] |
| --- | --- |
| B1 | 0.000501 |
| B2 | 0.00977 |
| B3 | 0.00639 |
| B4 | 0.00121 |
| B6 | 0.0608 |
| B7 | 0.00118 |
| B8 | 0.0038 |
| B9 | 0.00622 |
| B10 | 0.00334 |
| B11 | 0.0116 |
| B12 | 0.000509 |
| B13 | 0.000433 |
| B14 | 0.00694 |
| B15 | 0.00781 |
| B16 | 0.0055 |

molecular target: T2, mouse serum albumin (MSA), full length; experiment: SPR off-rate ratio to parent ADX_7016_A01, MSA, 25 C
Method: as §1

| Binder | MSA kd/Parent kd |
| --- | --- |
| B1 | 1.2 |
| B2 | 22.8 |
| B3 | 14.9 |
| B4 | 2.8 |
| B6 | 142 |
| B7 | 2.8 |
| B8 | 8.9 |
| B9 | 14.5 |
| B10 | 7.8 |
| B11 | 27 |
| B12 | 1.2 |
| B13 | 1 |
| B14 | 16.2 |
| B15 | 18.2 |
| B16 | 12.8 |

molecular target: T1, human serum albumin (HSA), full length; experiment: direct binding ELISA, coated HSA, anti-His-HRP; design: unit not given here
Method: (§2) Direct binding ELISA assays were conducted as follows. Full length human and murine serum albumin at 10ug/ml in PBS were coated on Nunc Maxisorp plates overnight at 4° C. Plates were blocked in casein/PBS buffer. PKE Adnectins were allowed to bind over a 4-point concentration range of 0.032-4 uM for HSA and 0.008-1 uM for MSA. Bound Adnectin was detected by anti-His antibody conjugated with HRP (horseradish peroxidase) diluted 1:1500 in casein/PBS. Plates were developed with TMB substrate and absorbance read at 450 nm. Adnectins were binned as high, medium and low affinity binders based on the observed Ymax of the concentration response curves.

| Binder | HSA DB ELISA (OD450) Ymax obs | HSA DB ELISA (OD450) Ymin obs |
| --- | --- | --- |
| B1 | 97 | 94 |
| B2 | 37 | 2 |
| B3 | 79 | 12 |
| B4 | 99 | 31 |
| B5 | 12 | 1 |
| B6 | 19 | 2 |
| B7 | 99 | 20 |
| B8 | 89 | 9 |
| B9 | 67 | 8 |
| B10 | 100 | 44 |
| B11 | 38 | 2 |
| B12 | 98 | 88 |
| B13 | 97 | 88 |
| B14 | 56 | 6 |
| B15 | 60 | 4 |
| B16 | 90 | 19 |

molecular target: T1, human serum albumin (HSA), full length; experiment: SPR off-rate ratio to parent ADX_7016_A01, HSA, 25 C
Method: as §1

| Binder | HSA kd/Parent kd |
| --- | --- |
| B1 | 1.2 |
| B2 | 52 |
| B3 | 14 |
| B4 | 4 |
| B5 | 56 |
| B6 | 50 |
| B7 | 5 |
| B8 | 17 |
| B9 | 20 |
| B10 | 8 |
| B11 | 53 |
| B12 | 1.1 |
| B13 | 1 |
| B14 | 23 |
| B15 | 28 |
| B16 | 11 |

molecular target: T2, mouse serum albumin (MSA), full length; experiment: direct binding ELISA, coated MSA, anti-His-HRP; design: unit not given here
Method: as §2

| Binder | MSA DB ELISA (OD450) Ymax obs | MSA DB ELISA (OD450) Ymin obs |
| --- | --- | --- |
| B1 | 91 | 88 |
| B2 | 39 | 1 |
| B3 | 87 | 3 |
| B4 | 95 | 23 |
| B5 | 11 | 1 |
| B6 | 42 | 1 |
| B7 | 93 | 17 |
| B8 | 67 | 2 |
| B9 | 85 | 1 |
| B10 | 94 | 6 |
| B11 | 32 | 1 |
| B12 | 93 | 90 |
| B13 | 91 | 88 |
| B14 | 77 | 2 |
| B15 | 63 | 2 |
| B16 | 91 | 4 |

From patent US20180258158A1 (Bristol-Myers Squibb, published 2018)
